Test results from paper PMC2504713 (Journal of Leukocyte Biology, 2008).

Assays:
[1] = biological target: Recombinant rat Nrp1, conjugated to an Fc fragment of human IgG1 (Nrp1-Fc) (rat) (UniProt Q9QWJ9); assay: ELISA
[2] = biological target: T1, LAP C-terminal peptide QSSRHRR; assay: ELISA
T1 peptide: Ac-QSSRHRR-OH

Question: For Active (mature) TGF-β1 (ligand), which IC50 [1] is on record?
Answer: 0.89 nM

Question: And the Kd [1]?
Answer: 0.04 nM

Question: Which EC50 [1] does the source give for “LAP-TGF-β1 (the latent form of TGF-β1) (from UniProt P01137 30-278) (complex)” here?
Answer: 0.338 nM

B1: Recombinant rat Nrp1, conjugated to an Fc fragment of human IgG1 (Nrp1-Fc) (Fc fusion, UniProt Q9QWJ9 22-855, looked up)
chain: FRSDKCGGTIKIENPGYLTSPGYPHSYHPSEKCEWLIQAPEPYQRIMINFNPHFDLEDRDCKYDYVEVIDGENEGGRLWGKFCGKIAPSPVVSSGPFLFIKFVSDYETHGAGFSIRYEIFKRGPECSQNYTAPTGVIKSPGFPEKYPNSLECTYIIFAPKMSEIILEFESFDLEQDSNPPGGVFCRYDRLEIWDGFPEVGPHIGRYCGQKTPGRIRSSSGILSMVFYTDSAIAKEGFSANYSVLQSSISEDFKCMEALGMESGEIHSDQITASSQYGTNWSVERSRLNYPENGWTPGEDSYREWIQVDLGLLRFVTAVGTQGAISKETKKKYYVKTYRVDISSNGEDWITLKEGNKAIIFQGNTNPTDVVFGVFPKPLITRFVRIKPASWETGISMRFEVYGCKITDYPCSGMLGMVSGLISDSQITASNQGDRNWMPENIRLVTSRTGWALPPSPHPYINEWLQVDLGDEKIVRGVIIQGGKHRENKVFMRKFKIAYSNNGSDWKMIMDDSKRKAKSFEGNNNYDTPELRAFTPLSTRFIRIYPERATHSGLGLRMELLGCEVEVPTAGPTTPNGNPVDECDDDQANCHSGTGDDFQLTGGTTVLATEKPTIIDSTIQSEFPTYGFNCEFGWGSHKTFCHWEHDSHAQLRWRVLTSKTGPIQDHTGDGNFIYSQADENQKGKVARLVSPVVYSQSSAHCMTFWYHMSGSHVGTLRVKLHYQKPEEYDQLVWMVVGHQGDHWKEGRVLLHKSLKLYQVIFEGEIGKGNLGGIAVDDISINNHIPQEDCAKPTDLDKKNTEIKIDETGSTPGYEEGKGDKNISRKPGNVLKTLDP
Question: How did the EC50 [2] turn out when B1 was run?
Answer: 4.18 ± 0.99 nM
